Reference: US20230374150A1 (Memorial Sloan Kettering, published 2023)
“And” between values parts separate entries of the source, which are not always exact repeats. Equal entries are not always repeated. One block for each binder: values may come before it.

Key:
Human PSMA antigen [1] = target: T1, Human PSMA antigen (human, UniProt Q04609 44-750, limits assumed); assay: SPR (Biacore), 37 C, antibody over immobilized PSMA
T1 construct: This is the antigen immobilised on the Biacore chip; also called FOLH1_HUMAN
Text: The calculated kinetic parameters derived from SPR are shown in FIG. 4C, showing distinct differences in affinities when compared to the chimeric and the original mouse antibody J591. Increased affinity of anti-PSMA antibodies should translate into higher potency, while lower affinity anti-PSMA antibodies into lower toxicity. This affinity modulation is achieved without altering the CDR sequences. Based on the binding kinetics, the clone having combination of J591_VL-1 and J591_VH-3, which has near identical binding kinetics to those of J591 chimeric antibody, was chosen to build the PSMA-BsAb (BC244) of the present technology. The amino acid sequences of the light chain (SEQ ID NO: 11) and the heavy chain (SEQ ID NO: 12) of the select clone are shown in FIG. 12. Mutation N297A was used to remove glycosylation, and K322A to minimize complement activation.

cynomolgus PSMA (ACRO) = target: T2, cynomolgus PSMA (ACRO) (cynomolgus, UniProt A0A2K5VNZ0 44-750); assay: SPR Biacore, immobilised cynomolgus PSMA, 37 C, 1:1 fit
T2 construct: Immobilised on the Biacore chip
Experimental: (§1) PSMA-BsAb Biacore Settings. Human PSMA antigen was immobilized directly on Fc2 at 3000 RU, and cynomolgus PSMA (ACRO) on Fc4 at 3000 RU (Blank on Fc1 and Fc3 as controls). Abs were run through the system at 37° C., at concentrations of 250 and 500 nM, with association time 1 min, dissociation time 15 min. Regeneration was performed at 30 mM NaOH. All data were fitted with 1:1 model.

Human PSMA antigen [2] = target: T1, Human PSMA antigen; assay: SPR Biacore, immobilised human PSMA, 37 C, 1:1 fit
Experimental: as §1

[3] = target: PSMA on PSMA(+) canine osteosarcoma cell lines (D-17, DSN, DAN, DSDh) (canine, UniProt I4IY07 29-779); assay: cell-based or functional assay
[4] = target: PSMA on PSMA(+) human prostate cancer cell lines (LNCaP-AR, PC3-PIP, CWR22, VCaP) (human, UniProt Q04609 1-750); assay: cell-based or functional assay
PSMA on PSMA(+) human prostate cancer cell lines (LNCaP-AR, PC3-PIP, CWR22, VCaP), sequence (Q04609 whole entry): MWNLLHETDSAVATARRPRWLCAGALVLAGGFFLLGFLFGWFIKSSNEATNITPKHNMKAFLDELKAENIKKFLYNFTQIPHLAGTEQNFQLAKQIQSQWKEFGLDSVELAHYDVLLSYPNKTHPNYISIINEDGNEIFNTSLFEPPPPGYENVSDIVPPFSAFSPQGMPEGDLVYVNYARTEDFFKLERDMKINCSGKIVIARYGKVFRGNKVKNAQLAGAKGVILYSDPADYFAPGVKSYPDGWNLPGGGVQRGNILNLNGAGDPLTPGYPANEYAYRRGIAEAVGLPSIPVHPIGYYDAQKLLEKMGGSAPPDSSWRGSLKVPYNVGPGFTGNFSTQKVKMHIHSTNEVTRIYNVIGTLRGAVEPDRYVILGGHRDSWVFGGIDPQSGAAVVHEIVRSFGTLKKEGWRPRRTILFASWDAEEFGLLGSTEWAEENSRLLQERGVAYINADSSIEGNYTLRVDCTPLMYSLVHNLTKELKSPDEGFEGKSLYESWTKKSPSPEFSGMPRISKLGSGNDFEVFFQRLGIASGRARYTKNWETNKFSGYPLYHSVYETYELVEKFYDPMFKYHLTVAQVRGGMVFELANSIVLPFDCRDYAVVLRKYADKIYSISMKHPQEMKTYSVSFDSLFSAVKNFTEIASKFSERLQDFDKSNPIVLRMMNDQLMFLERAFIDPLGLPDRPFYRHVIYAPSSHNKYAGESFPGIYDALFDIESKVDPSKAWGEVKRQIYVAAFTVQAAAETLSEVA

T1 sequence (Q04609 44-750 limits assumed): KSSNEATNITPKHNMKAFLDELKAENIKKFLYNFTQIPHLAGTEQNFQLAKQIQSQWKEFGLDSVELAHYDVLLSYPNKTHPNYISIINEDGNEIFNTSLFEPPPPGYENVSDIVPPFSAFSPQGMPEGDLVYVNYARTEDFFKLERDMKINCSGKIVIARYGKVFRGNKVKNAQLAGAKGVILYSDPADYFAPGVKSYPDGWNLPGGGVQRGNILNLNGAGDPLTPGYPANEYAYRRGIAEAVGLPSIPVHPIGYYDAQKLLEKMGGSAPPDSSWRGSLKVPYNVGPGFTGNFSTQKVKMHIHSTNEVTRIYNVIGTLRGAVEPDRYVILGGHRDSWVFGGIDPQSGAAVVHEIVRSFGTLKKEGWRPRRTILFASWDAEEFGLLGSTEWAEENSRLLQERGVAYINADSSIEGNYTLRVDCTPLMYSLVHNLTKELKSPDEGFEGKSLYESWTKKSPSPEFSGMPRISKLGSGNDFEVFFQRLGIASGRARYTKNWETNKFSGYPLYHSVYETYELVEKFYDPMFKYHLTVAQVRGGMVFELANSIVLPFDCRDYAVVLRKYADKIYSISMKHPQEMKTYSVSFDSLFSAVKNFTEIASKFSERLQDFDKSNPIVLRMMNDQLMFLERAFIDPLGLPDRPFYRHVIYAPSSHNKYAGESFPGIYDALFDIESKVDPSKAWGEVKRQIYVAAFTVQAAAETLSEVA
PSMA on PSMA(+) canine osteosarcoma cell lines (D-17, DSN, DAN, DSDh), sequence (I4IY07 entry or part of it limits assumed): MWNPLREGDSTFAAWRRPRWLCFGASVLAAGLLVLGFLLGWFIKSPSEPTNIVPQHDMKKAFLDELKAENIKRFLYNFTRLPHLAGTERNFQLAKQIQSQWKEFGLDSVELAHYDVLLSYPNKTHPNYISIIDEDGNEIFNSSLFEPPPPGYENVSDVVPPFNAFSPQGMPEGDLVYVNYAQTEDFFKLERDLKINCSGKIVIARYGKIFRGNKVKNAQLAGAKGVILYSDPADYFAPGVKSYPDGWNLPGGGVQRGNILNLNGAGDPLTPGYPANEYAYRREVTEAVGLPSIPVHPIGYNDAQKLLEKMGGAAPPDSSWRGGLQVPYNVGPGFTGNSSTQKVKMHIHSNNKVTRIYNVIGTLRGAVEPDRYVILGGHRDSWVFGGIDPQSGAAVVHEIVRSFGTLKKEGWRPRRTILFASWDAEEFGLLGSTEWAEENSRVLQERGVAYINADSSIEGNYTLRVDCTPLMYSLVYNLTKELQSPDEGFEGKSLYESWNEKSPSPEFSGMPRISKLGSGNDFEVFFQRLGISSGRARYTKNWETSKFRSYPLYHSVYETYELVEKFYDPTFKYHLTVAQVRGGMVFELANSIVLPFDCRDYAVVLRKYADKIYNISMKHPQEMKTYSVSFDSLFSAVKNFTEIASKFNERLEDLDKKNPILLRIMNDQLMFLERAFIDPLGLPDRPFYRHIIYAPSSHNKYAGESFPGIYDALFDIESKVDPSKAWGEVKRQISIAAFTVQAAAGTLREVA

Kd (Human PSMA antigen [1]): 0.206 nM
koff (Human PSMA antigen [1]): 1.21e-05 s⁻¹
kon (Human PSMA antigen [1]): 58500 M⁻¹ s⁻¹
Kd (cynomolgus PSMA (ACRO)): 3.71 nM
koff (cynomolgus PSMA (ACRO)): 0.000716 s⁻¹
kon (cynomolgus PSMA (ACRO)): 193000 M⁻¹ s⁻¹
t ½ (cynomolgus PSMA (ACRO)): 16.1 min
Kd (Human PSMA antigen [2]): 1.55 nM
koff (Human PSMA antigen [2]): 0.000196 s⁻¹
kon (Human PSMA antigen [2]): 127000 M⁻¹ s⁻¹
t ½ (Human PSMA antigen [2]): 58.8 min
B1: 10J5-chimeric J591 (antibody, V domains shown)
VH: EVQLQQSGPELVKPGTSVRISCKTSGYTFTEYTIHWVKQSHGKSLEWIGNINPNNGGTTYNQKFEDKATLTVDKSSSTAYMELRSLTSEDSAVYYCAAGWNFDYWGQGTTLTVSS
VL: DIVMTQSHKFMSTSVGDRVSIICKASQDVGTAVDWYQQKPGQSPKLLIYWASTRHTGVPDRFTGSGSGTDFTLTITNVQSEDLADYFCQQYNSYPLTFGAGTMLDLKR
notes: also called J591 chimeric antibody

Kd (cynomolgus PSMA (ACRO)): 2.79 nM
koff (cynomolgus PSMA (ACRO)): 0.000329 s⁻¹
kon (cynomolgus PSMA (ACRO)): 118000 M⁻¹ s⁻¹
t ½ (cynomolgus PSMA (ACRO)): 35.1 min
EC50, ADTC (4-hour 51Cr release), D-17 cells [3]: 0.106 nM
EC50, ADTC (4-hour 51Cr release), DAN cells [3]: 0.102 nM
EC50, ADTC (4-hour 51Cr release), DSDh cells [3]: 0.152 nM
EC50, ADTC (4-hour 51Cr release), DSN cells [3]: 0.0703 nM
EC50, ADTC (4-hour 51Cr release), LNCaP-AR cells [4]: 0.000761 µg/mL and 3.81 pM
EC50, ADTC (4-hour 51Cr release), PC3-PIP cells [4]: 2.1e-05 µg/mL and 107 fM
EC50, ADTC (4-hour 51Cr release), VCaP cells [4]: 0.0163 µg/mL and 81.7 pM
Kd (Human PSMA antigen [2]): 1.18 nM
koff (Human PSMA antigen [2]): 0.000162 s⁻¹
kon (Human PSMA antigen [2]): 138000 M⁻¹ s⁻¹
t ½ (Human PSMA antigen [2]): 71.2 min
B2: humanized anti-PSMAxCD3 BsAb BC244 (H3L1) (bispecific antibody, human IgG1, kappa, N297A)
light: DIQLTQSPSFLSASVGDRVTITCRASQDVGTALDWYQQKPGKAPKLLIYWASTLHSGVPSRFSGSGSGTEFTLTISSLQPEDFATYYCQQYNSYPLTFGQGTKLEIKRTVAAPSVFIFPPSDEQLKSGTASVVCLLNNFYPREAKVQWKVDNALQSGNSQESVTEQDSKDSTYSLSSTLTLSKADYEKHKVYACEVTHQGLSSPVTKSFNRGECTSGGGGSGGGGSGGGGSQVQLVQSGGGVVQPGRSLRLSCKASGYTFTRYTMHWVRQAPGKCLEWIGYINPSRGYTNYNQKFKDRFTISRDNSKNTAFLQMDSLRPEDTGVYFCARYYDDHYSLDYWGQGTPVTVSSGGGGSGGGGSGGGGSGGGGSGGGGSGGGGSDIQMTQSPSSLSASVGDRVTITCSASSSVSYMNWYQQTPGKAPKRWIYDTSKLASGVPSRFSGSGSGTDYTFTISSLQPEDIATYYCQQWSSNPFTFGCGTKLQITR
heavy: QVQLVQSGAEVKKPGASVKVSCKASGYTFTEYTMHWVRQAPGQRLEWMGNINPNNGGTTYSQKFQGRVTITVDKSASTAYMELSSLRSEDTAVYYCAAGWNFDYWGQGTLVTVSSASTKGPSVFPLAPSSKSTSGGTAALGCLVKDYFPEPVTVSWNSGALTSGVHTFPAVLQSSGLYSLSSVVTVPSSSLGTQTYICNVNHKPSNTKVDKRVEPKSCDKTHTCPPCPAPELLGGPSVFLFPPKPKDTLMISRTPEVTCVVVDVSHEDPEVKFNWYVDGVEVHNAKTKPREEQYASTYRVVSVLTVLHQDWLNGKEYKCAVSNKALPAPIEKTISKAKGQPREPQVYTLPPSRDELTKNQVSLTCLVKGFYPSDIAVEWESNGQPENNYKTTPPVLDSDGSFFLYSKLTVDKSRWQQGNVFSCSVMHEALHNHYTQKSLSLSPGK
notes: IgG(L)-scFv format, J591_VL-1 + J591_VH-3; also called PSMA-BsAb

Kd (cynomolgus PSMA (ACRO)): 8.75 nM
koff (cynomolgus PSMA (ACRO)): 0.000459 s⁻¹
kon (cynomolgus PSMA (ACRO)): 52500 M⁻¹ s⁻¹
t ½ (cynomolgus PSMA (ACRO)): 25.2 min
Kd (Human PSMA antigen [2]): 2.9 nM
koff (Human PSMA antigen [2]): 0.000279 s⁻¹
kon (Human PSMA antigen [2]): 96200 M⁻¹ s⁻¹
t ½ (Human PSMA antigen [2]): 41.3 min
B3: anti-PSMAxhuC825 clone BC192 (PSMA LALA) (bispecific antibody, human IgG1, kappa, L234A L235A)
light: DIQLTQSPSFLSASVGDRVTITCRASQDVGTALDWYQQKPGKAPKLLIYWASTLHSGVPSRFSGSGSGTEFTLTISSLQPEDFATYYCQQYNSYPLTFGQGTKLEIKRTVAAPSVFIFPPSDEQLKSGTASVVCLLNNFYPREAKVQWKVDNALQSGNSQESVTEQDSKDSTYSLSSTLTLSKADYEKHKVYACEVTHQGLSSPVTKSFNRGECTSGGGGSGGGGSGGGGSHVQLVESGGGLVQPGGSLRLSCAASGFSLTDYGVHWVRQAPGKGLEWLGVIWSGGGTAYNTALISRFTISRDNSKNTLYLQMNSLRAEDTAVYYCARRGSYPYNYFDAWGCGTLVTVSSGGGGSGGGGSGGGGSGGGGSGGGGSGGGGSQAVVTQEPSLTVSPGGTVTLTCGSSTGAVTASNYANWVQQKPGQCPRGLIGGHNNRPPGVPARFSGSLLGGKAALTLLGAQPEDEAEYYCALWYSDHWVIGGGTKLTVLG
heavy: not shown

Kd (cynomolgus PSMA (ACRO)): 4.88 nM
koff (cynomolgus PSMA (ACRO)): 0.000209 s⁻¹
kon (cynomolgus PSMA (ACRO)): 42900 M⁻¹ s⁻¹
t ½ (cynomolgus PSMA (ACRO)): 55.2 min
Kd (Human PSMA antigen [2]): 2.15 nM
koff (Human PSMA antigen [2]): 0.00021 s⁻¹
kon (Human PSMA antigen [2]): 97500 M⁻¹ s⁻¹
t ½ (Human PSMA antigen [2]): 55 min
B4: anti-PSMAxhuC825 clone BC193 (PSMA K322) (bispecific antibody)
light: B3 light
heavy: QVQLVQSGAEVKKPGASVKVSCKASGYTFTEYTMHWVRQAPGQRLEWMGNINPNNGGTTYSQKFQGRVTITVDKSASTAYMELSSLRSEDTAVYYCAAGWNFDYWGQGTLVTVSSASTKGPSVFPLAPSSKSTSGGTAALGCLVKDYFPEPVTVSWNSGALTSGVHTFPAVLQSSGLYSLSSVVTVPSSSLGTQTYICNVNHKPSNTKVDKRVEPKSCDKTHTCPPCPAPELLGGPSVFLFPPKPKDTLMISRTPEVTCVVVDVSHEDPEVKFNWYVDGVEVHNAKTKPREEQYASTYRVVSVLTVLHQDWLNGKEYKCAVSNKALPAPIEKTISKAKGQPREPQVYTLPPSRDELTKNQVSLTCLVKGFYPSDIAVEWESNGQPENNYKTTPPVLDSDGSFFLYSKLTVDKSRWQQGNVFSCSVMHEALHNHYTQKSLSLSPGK
